{"source": "paper PMC10643120", "about": "(Nature structural & molecular biology, 2023)", "proteins": {"B1": {"name": "ΦPA3 gp2 (ChmB), purified (natural protein, Pseudomonas phage ΦPA3, UniProt F8SJN3 1-197, looked up)", "chain": "MTDVAYPYLETSTLFDNIVKGQILEPDAESPQLSHVLKITDAAGIGHEVTFFQLSILLAILQGNKHELTDNQPHQYLVNQWVLTDLHNIYDEGYVMTSHRVIVDHVEEVATFTGTLVHQKTIRSHPNWQEGFTAPVKEFEFNLENFGIFHQIVFSQCIANLTPELDWVARTFGHSYIFEMEGRNVRVASIQEEGTTE"}, "B2": {"name": "201Φ2-1 gp2 (ChmB), purified (natural protein, Pseudomonas phage 201Φ2-1, UniProt B3FJX8 1-179, looked up)", "chain": "MTLIAKPAVPDTEVLNHIGRDLLLKDEDGSFKLQRHLKILTEEGLVHQVSFAQVDGLLNILDSTRETPPCSPLQYLITHYDLKDLVELGKDGWLVPEYQVVVMHSSKTVRFEGKLTRVGSIDKEFTFALGGFDFIQQLSLARCIASLGKEFEQVIGTFDCTYVFKTGPDGISVSTDIGV"}, "B3": {"name": "gp2 homolog of phage Psa21 (gp3), purified (natural protein, Pseudomonas phage Psa21, UniProt A0A481W4E6 1-229, looked up)", "chain": "MNPVYDIFNDIANNMVTVENKEEFLSNTVRLVGASGKEHVLSIAQAQLLLGVLDGSHQFLTDYNPLEFLLFSYQFQDKIKLKYVAVQYQIIYDADDDSIFVSGVTRHPMTVVGHPDYVAGASVPIETFQTTIPNVGLYGGLALVNCIATQSPDFAPVKGSFGGSFIFEFDGGKQSIRRYVPAEIDEPVIHKEELQEALDEAVKKFVPSAAPKVEFNGIKDTSTKTEQEI"}}}
{"target": "the molecule itself", "assay": "SEC-MALS; 100 μL of purified protein at 5 mg/mL on Superdex 200 Increase 10/300 GL in buffer GF (300 mM NaCl, 1 mM DTT)"}
{"protein": "B1", "stoichiometry N": 2}
{"protein": "B2", "stoichiometry N": 2}
{"protein": "B3", "stoichiometry N": 2}
